Substitutions are numbered along the chain they refer to. Numbers in names are those of the source.
B1: PRA, C-terminal domain of MYH9 (recombinant, wild type) K1673A (protein)
chain: MRELEDTRASREEILAQAKENEAKLKSMEAEMIQLQEELAAAERAKRQAQQERDELADEIANSSGKGALALEEKRRLEARIAQLEEELEEEQGNTELVNDRLKKANLQIDQINTDLNLERSHAQKNENARQQLERQNKELKVKLQEMEGTVKSKYKASIAALEAKIAQLEEQLDNETKERQAACKQVRRAEKKLKDVLLQVDDERRNAEQYKDQADKASTRLKQLKRQLEEAEEEAQRANASRRKLQRELEDATETADAMNREVSSLKNKLRRGDLPFVVPRRMGRKGAGDCSDEEVDGKADGAEAKAAE
B2: PRA, C-terminal domain of MYH9 (recombinant, wild type) E1670A; K1673A; E1679A; I1683A (protein)
chain: B1 chain with E20A, E29A, I33A
B3: PRA, C-terminal domain of MYH9 (recombinant, wild type) E1679A (protein)
chain: B1 chain with A23K, E29A
B4: PRA, C-terminal domain of MYH9 (recombinant, wild type) E1670A (protein)
chain: B1 chain with E20A, A23K
B5: PRA, C-terminal domain of MYH9 (recombinant, wild type) I1683A (protein)
chain: B1 chain with A23K, I33A

Molecular target: Mab2-5G2, monoclonal anti-idiotypic antibody recognizing an antibody that specifically interacts with PRRSV glycoprotein 5 (GP5)
Assay: ELISA
Conditions: chain shown with the change; Mab2-5G2 as plate-coating protein; anti-PRA rabbit serum for detection; parent: est. 1.6; read off a plot

Q: For B1, which response is on record?
A: Its response is 0.4 OD450.

Q: Which response does the source give for B2 here?
A: Its response is 0.41 OD450.

Q: With B3 as the binder, how does the response read?
A: The response was 0.36 OD450.

Q: With B4 as the binder, how does the response read?
A: The response was 0.46 OD450.

Q: Which response does the source give for B5 here?
A: Its response is 0.61 OD450.

— PMC7019770
